From patent publication US20240209095A1 (DEVELOPMENT CENTER FOR BIOTECHNOLOGY, published 2024) come the findings set out here.

Changes are numbered by the printed parent chain.

The labels stand for the following.
B1: mouse-human chimera 3C3 MM (antibody, V domains shown)
VH: EVQLQESGPGLTKPSQTLSLTCSVTGYSITSDYWDWIRKFPGNKLEYMGYISYTGSTYYNPSLRSRISITRDTSKNQYYLQLSSVTSEDSATYYCARRGGWLSPFVYWGQGTLVTVSA
VL: DTVMSQSPSSLGVSVGERVTLTCKSRQSLLFSSNQKNSLAWYQQKPGQSPKLLIYWASTRESGVPDRFTGSGSGTDFTLTISSVKSEDLAVYYCQQYYTYPFTFGAGTSLELK
notes: Variable regions in human chimera antibody expression vectors pTCAED heavy and light; human IgG, kappa (detected with anti-human Kappa); also called 3C3 heavy chain M / light chain M; chimera PD-L1
B2: 3C3 heavy chain Hu-B1 / light chain M (antibody, V domains shown)
VH: EVQLQESGPGLVKPSQTLSLTCTVSGYSITSDYWDWIRQPPGKGLEWMGYISYTGSTYYNPSLRSRITISRDTSKNQYSLKLSSVTAADTAVYYCARRGGWLSPFVYWGQGTLVTVSS
VL: B1 VL
notes: Human IgG, kappa, from pTCAED vectors; tested as culture supernatant
B3: 3C3 heavy chain M / light chain Hu0 (antibody, V domains shown)
VH: B1 VH
VL: DIVMTQSPDSLAVSLGERATINCKSRQSLLFSSNQKNSLAWYQQKPGQPPKLLIYWASTRESGVPDRFSGSGSGTDFTLTISSLQAEDVAVYYCQQYYTYPFTFGQGTKLEIK
notes: as for B2
B4: 3C3 heavy chain M / light chain Hu2 (antibody, V domains shown)
VH: B1 VH
VL: DIVMTQTPLSLSVTPGQPASISCKSRQSLLFSSNQKNSLAWYLQKPGQSPQLLIYWASTRESGVPDRFSGSGSGTDFTLKISRVEAEDVGVYYCQQYYTYPFTFGQGTKLEIK
notes: as for B2
B5: 3C3 heavy chain M / light chain Hu (antibody, V domains shown)
VH: B1 VH
VL: DIQMTQSPSSLSASVGDRVTITCKSRQSLLFSSNQKNSLAWYQQKPGKAPKLLIYWASTRESGVPSRFSGSGSGTDFTLTISSLQPEDFATYYCQQYYTYPFTFGQGTKLEIK
notes: as for B2
B6: 3C3 heavy chain Hu / light chain M (antibody, V domains shown)
VH: B2 VH with E1Q, M48I, I67V, R71V, Y78F
VL: B1 VL
notes: as for B2
B7: 3C3 heavy chain Hu-B2 / light chain M (antibody, V domains shown)
VH: B2 VH with Q39K, W47Y
VL: B1 VL
notes: as for B2
B8: 3C3 heavy chain Hu-B1 / light chain Hu0 (antibody, V domains shown)
VH: B2 VH
VL: B3 VL
notes: as for B2
B9: 3C3 heavy chain Hu-B1 / light chain Hu (antibody, V domains shown)
VH: B2 VH
VL: B5 VL
notes: as for B2
B10: 3C3 heavy chain Hu-B1 / light chain Hu2 (antibody, V domains shown)
VH: B2 VH
VL: B4 VL
notes: as for B2
B11: 3C3 humanized antibody HuB2Hu2 (antibody, V domains shown)
VH: B2 VH with Q39K, W47Y
VL: B4 VL
notes: Human IgG, kappa, from pTCAED vectors; also called 3C3-HuB2Hu2; 3C3 HuB2Hu2
B12: 3C3 humanized antibody HuB2Hu (antibody, V domains shown)
VH: B2 VH with Q39K, W47Y
VL: B5 VL
notes: Human IgG, kappa, from pTCAED vectors; also called 3C3-HuB2Hu; 3C3 HuB2Hu
B13: 3C3 humanized antibody HuHu0 (antibody, V domains shown)
VH: B2 VH with E1Q, M48I, I67V, R71V, Y78F
VL: B3 VL
notes: Human IgG, kappa, from pTCAED vectors; also called 3C3 heavy chain Hu / light chain Hu0
B14: 3C3 humanized antibody HuB2Hu0 (antibody, V domains shown)
VH: B2 VH with Q39K, W47Y
VL: B3 VL
notes: Human IgG, kappa, from pTCAED vectors; also called 3C3-HuB2Hu0; 3C3 HuB2Hu0
B15: mouse hybridoma anti-human PD-L1 antibody 1G8 (antibody, V domains shown)
VH: B1 VH with E1Q, T12A, D35N, Y47F, R64K, S83N, S87T, S90T, G100E, V106A
VL: B1 VL with T2I, R18K, V19I, L21M, T22S, R26S, F31Y, S109N
notes: Mouse monoclonal antibody from hybridoma, detected with goat anti-mouse IgG; also called mAb 1G8; mouse clone 1G8
B16: mouse hybridoma anti-human PD-L1 antibody 3C3 (antibody, V domains shown)
VH: B1 VH
VL: B1 VL
notes: Mouse monoclonal antibody from hybridoma, detected with goat anti-mouse IgG; also called mAb 3C3; mouse clone 3C3
B17: 1G8 humanized antibody HuHu (antibody, V domains shown)
VH: B2 VH with E1Q, D35N, M48I, R64K, I67V, R71V, Y78F, G100E, V106A
VL: B5 VL with R26S, F31Y
notes: Human IgG, kappa, from pTCAED vectors; also called 1G8 HuHu
B18: 1G8 humanized antibody HuB2Hu0 (antibody, V domains shown)
VH: B2 VH with D35N, Q39K, W47Y, R64K, G100E, V106A
VL: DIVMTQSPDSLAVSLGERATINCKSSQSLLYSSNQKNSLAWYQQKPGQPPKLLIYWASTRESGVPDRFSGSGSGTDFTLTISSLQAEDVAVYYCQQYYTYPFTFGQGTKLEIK
notes: Human IgG, kappa, from pTCAED vectors; also called 1G8 HuB2Hu0
B19: 1G8 humanized antibody HuB2Hu2 (antibody, V domains shown)
VH: B2 VH with D35N, Q39K, W47Y, R64K, G100E, V106A
VL: B4 VL with R26S, F31Y
notes: Human IgG, kappa, from pTCAED vectors; also called 1G8 HuB2Hu2
B20: 1G8 humanized antibody HuHu0 (antibody, V domains shown)
VH: B2 VH with E1Q, D35N, M48I, R64K, I67V, R71V, Y78F, G100E, V106A
VL: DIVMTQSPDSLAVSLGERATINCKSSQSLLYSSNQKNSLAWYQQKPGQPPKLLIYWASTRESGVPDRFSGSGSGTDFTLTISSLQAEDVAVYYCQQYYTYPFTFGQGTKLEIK
notes: Human IgG, kappa, from pTCAED vectors; also called 1G8 HuHu0
B21: 1G8 humanized antibody HuHu2 (antibody, V domains shown)
VH: B2 VH with E1Q, D35N, M48I, R64K, I67V, R71V, Y78F, G100E, V106A
VL: B4 VL with R26S, F31Y
notes: Human IgG, kappa, from pTCAED vectors; also called 1G8 HuHu2
B22: 1G8 humanized antibody HuB2Hu (antibody, V domains shown)
VH: B2 VH with D35N, Q39K, W47Y, R64K, G100E, V106A
VL: B5 VL with R26S, F31Y
notes: Human IgG, kappa, from pTCAED vectors; also called 1G8 HuB2Hu

T3 sequence (Q9NZQ7 19-290): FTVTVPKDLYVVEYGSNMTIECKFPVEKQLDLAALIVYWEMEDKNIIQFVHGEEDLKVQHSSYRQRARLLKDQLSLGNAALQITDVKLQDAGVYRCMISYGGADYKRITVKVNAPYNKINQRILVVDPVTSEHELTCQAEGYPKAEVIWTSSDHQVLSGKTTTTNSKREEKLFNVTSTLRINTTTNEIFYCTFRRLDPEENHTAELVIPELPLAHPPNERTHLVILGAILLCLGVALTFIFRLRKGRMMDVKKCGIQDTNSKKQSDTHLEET
T1 sequence (Q9NZQ7 19-238): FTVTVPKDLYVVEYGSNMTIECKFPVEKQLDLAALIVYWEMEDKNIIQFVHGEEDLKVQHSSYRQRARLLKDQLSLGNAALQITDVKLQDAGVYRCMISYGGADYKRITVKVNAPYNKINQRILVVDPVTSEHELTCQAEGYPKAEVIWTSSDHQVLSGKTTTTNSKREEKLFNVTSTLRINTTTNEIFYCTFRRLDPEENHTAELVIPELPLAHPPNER

One experiment concerns the target T1, PDL1-hFc (UniProt Q9NZQ7 19-238).
T1 construct: Coated at 1 µg/ml in the ELISAs of the chimeric and humanized antibodies; construct not described
Put plainly: ELISA, PDL1-hFc coated 1 µg/ml, antibody supernatant at 300 ng/ml, anti-human Kappa HRP. The method, then: The binding activity of humanized antibodies could be efficiently compared by all combination of heavy chains and light chains using mini scale antibody expression. The concentration of antibodies in culture supernatant was determent by anti-human IgG ELISA. For PDL1 ELISA, plates were coating with PDL1-hFc 1 μg/ml and blocked by 5% milk PBS. Assay antibodies were adjusted to 300 ng/ml, 100 μl/well. Anti-PDL1 signals were measured by secondary goat anti-human Kappa HRP IgG 1:4000 and color developed by TMB substrates (KPL). Optical absorption value was measured at OD450-655 nm by Bio-Rad ELISA reader.
In general terms: An ELISA detects its analyte on a solid surface through an enzyme-linked reagent.
For the molecule B1, the “OD450-650 nM, 300 ng/ml PDL1 binding” value is 1.52 OD. Take B2: the “OD450-650 nM, 300 ng/ml PDL1 binding” value is 0.61 OD.

In the case of B3, the “OD450-650 nM, 300 ng/ml PDL1 binding” value worked out at 1.58 OD.

For B4, the “OD450-650 nM, 300 ng/ml PDL1 binding” value turned out to be 1.55 OD. On the same count and under the same terms, the result for B5 reads 1.85 OD; that for B6, 0.25 OD; that for B7, 1.2 OD.

Take B8: the “OD450-650 nM, 300 ng/ml PDL1 binding” value was 0.539 OD.

Take B9: the “OD450-650 nM, 300 ng/ml PDL1 binding” value came to 0.455 OD. Consider B10, for which the “OD450-650 nM, 300 ng/ml PDL1 binding” value came out at 0.349 OD. Still for that read-out and setting: the result for B11 reads 1.05 OD. On the same count and under the same terms, the result for B12 reads 1.35 OD. For the molecule B13, the “OD450-650 nM, 300 ng/ml PDL1 binding” value turned out to be 0.15 OD. With B14, the “OD450-650 nM, 300 ng/ml PDL1 binding” value was 1.13 OD.

The target in a further experiment is T2, human PD-L1 (coated on ELISA plate) (human, UniProt Q9NZQ7 19-238, limits assumed).
T2 construct: construct not described; also called CD274; B7 homolog 1
T2 sequence (Q9NZQ7 19-238 limits assumed): as the sequence (Q9NZQ7 19-238) above
Put plainly: ELISA, PD-L1 coated 0.1 µg/well, goat anti-mouse IgG-HRP. How it is done: Briefly, PD-L1 was coated on a 96-well ELISA plate (0.1 μg/well). After binding of anti-PD-L1 antibodies, a goat anti mouse IgG conjugated with horse radish peroxidase (HRP) was used as a second antibody and 3,3′,5,5′-Tetramethylbenzidine (TMB) was used as a substrate to assess the antibody-PD-L1 bindings. The OD405 was read to calculate the activities.
As usually defined, the Kd is the constant that tells how readily two partners part at equilibrium. A lower Kd goes with a tighter complex. In turn, B15 gave a Kd of 43.5 pM. Same read-out and setting: the result for B16 reads 35.6 pM.

The target of the next experiment is T1, PDL1-hFc. Put plainly: ELISA titration on PDL1-hFc 1 ug/ml, 45 nM to 2.7×10^-3 nM, one site-specific binding fit. How it is done:
(§1) ELISA plates were coating with PDL1-hFc 1 ug/ml and blocked by 5% milk PBS, then add assay antibodies form 45 nM to 2.7×10⁻³ nM dilute (4× fold dilution). Assay will measured by add goat anti-human KAPPA HRP IgG 1:4000 and binding curve and KD was determined by GraphPad Prism software using One site-specific binding for none linear fit methods.
B11 yielded a Kd of 101 pM.

For B12, binding was put at a Kd of 93.6 pM. On the same count and under the same terms, the result for B17 reads 3240 pM; that for B14, 108 pM. On the same count and under the same terms, the result for B18 reads 238 pM; that for B19, 108 pM. For the molecule B20, the Kd stood at 3990 pM. Molecule B21 came in with a Kd of 9680 pM. The same measure, in the same setting: the result for B22 reads 248 pM.

In the next experiment the target is T1, PDL1-hFc. The experiment can be described thus: ELISA titration on PDL1-hFc, KD compared with parental 3C3 (FIG. 10). How it is done: as §1
Consider B11, for which the “fold affinity loss against parental mouse clone 3C3” value was less than 2 fold. The same measure, in the same setting: the result for B12 reads less than 2 fold; that for B14, less than 2 fold.

A further experiment concerns the target T3, human PD-L1 expressed on cells (HCC827 cells; PD-L1 aAPC/CHO-K1 cells) (human, UniProt Q9NZQ7 19-290). The experiment can be described thus: cell-based or functional assay.
In the case of B11, the “3C3 humanized antibodies Blockade Reporter Assay EC50” value was 409 pM. B12: the “3C3 humanized antibodies Blockade Reporter Assay EC50” value worked out at 441 pM. Same read-out and setting: the result for B14 reads 477 pM.

The next experiment has as its target T3, human PD-L1 expressed on cells (HCC827 …). The experiment can be described thus: cell-based or functional assay. This is another data set of the same source.
B15: the “Luc repoter EC50” value worked out at 620 pM.

For B16, the “Luc repoter EC50” value was determined as 580 pM.

For a further experiment the target is unchanged. Put plainly: cell-based or functional assay. This is another data set of the same source.
Turning to B15, the “PD1/PD-L1 Blockade Reporter Assay EC50” value came out at 620 pM.

As to B16, the “PD1/PD-L1 Blockade Reporter Assay EC50” value came out at 582 pM.
